Laboratory results published in patent US20120121633A1, “HIV CD4 BINDING SITE BASED COVALENT IMMUNOGEN COMPOSITIONS” (priority 2010, published 2012).
Changes are numbered by the printed parent chain.

Experiments:
BSA-E-416-433 = BSA-E-416-433 (Human immunodeficiency virus type 1 group M subtype B, UniProt P04578, C418S/K429E); details: inhibited by gp120, Bt-E-416-433 and sCD4, not by Sh416-433 or ovalbumin
Procedure: FIG. 21. […] IgM 2G9 binding to BSA-E-416-433 (70 ng/well) was tested in the absence or presence of increasing concentrations of Bt-E-416-433, sCD4, gp120, control Sh416-433 and control ovalbumin (OVA). Y-axis values are computed as follows 100x[A490 with competitor/A490 without competitor]. Methods as in ref 2.

[1] = test system: subtype C clinical HIV isolate ZA009 (97ZA009); test: HIV neutralization, PBMC/clinical isolate assay, strain ZA009; format: cell-based; details: MAb clones from KLH-E-416-433 immunized mice
Excerpt: FIG. 12. […] A, 416-433 and 301-324 epitope sequences from the autologous subtype B strain of IgA donor 2866 and heterologous subtype C strain ZA009 used for neutralization assays. […] Host cells, PBMCs; virus isolate, R5-dependent subtype C strain ZA009. IC50, 50% neutralization concentration. Dashed lines, 95% confidence limits. […] Pooled IgA (I19-21 donors 2857, 2866 and 2886) was fractionated on agarose-conjugated as in FIG. 8. […] Host cells, PBMCs; virus, strain ZA009.
FIG. 19. […] Abs were fractionated by affinity chromatography on agarose-conjugated E-416-433. Plotted are the neutralization potencies (IC50) expressed per unit mass Ab content (sum of IgM, IgG and IgA measured by ELISA using class-specific Abs as in FIG. 8). IC50 computed from dose-response curves using the CCR5-dependent subtype C strain 97ZA009. […] Noncovalently and covalently bound fractions were recovered, respectively, by pH 2.7 elution and 2-PAM elution.
Neutralization of clinical HIV isolates obtained from the NIH AIDS Reagent Repository is tested using phytohemagglutinin-activated human PBMCs pooled from 4-12 donors.^44 The virus is incubated with the test Ab sample in quadruplicate to ensure reliability. The reaction mixtures are added to PBMCs in 96-well plates. Infection is monitored using p24 enzyme-immunoassay kits. […] The stock HIV strain ZA009 is used to infect PBMC in the presence of the Ab. Infection proceeds overnight and cells are washed and resuspended in RPMI media containing the Ab. After 7 days the cell-free supernatant is harvested and used to infect a new aliquot of stimulated PBMCs (second passage). The virus is passaged 10 times with a gradual (2-fold) increase in Ab concentration with each passage. A virus aliquot is saved at each passage for sequencing.^112 Viral supernatants are titered at each passage using a fresh batch of PBMCs. The gp120 gene will sequenced following RT-PCR as described.^113

B1: 2G9: murine IgM MAb from KLH-E-416-433 immunization (antibody, V domains shown)
VH: QVQLKQSGPGLVQPSQSLSITCTVSGFSLTSYGVHWVRQSPGKGLEWLGVIWSGGSTDYNAAFISRLSISKDNSKSQVFFKMNSLQANDTAIYYCARNKDYGSSYDYYAMDYWGQGTSVTVSS
VL: DIQMTQTTSSLSASLGDRVTISCRASQDISNYLNWYQQKPDGTVKLLIYYTSRLHSGVPSRFSGSGSGTDYSLTISNLEQEDIATYFCQQGNTLPTFGGGTKLEIKRA
With B1 the “specificity of binding shown by competitive inhibition” value (BSA-E-416-433) was “Specificity for 421-433 CD4BS sequence” and the “HIV neutralizing activity” value [1] was “neutralizing activity”.

B2: 4B2-F8: murine IgG MAb from KLH-E-416-433 immunization (antibody, V domains shown)
VH: QVQLQQSGAELVRPGASVKLSCMALGYTFTDYEIHWVKQTPVHGLEWIGGFHPGSGGGAYSQKFKGKATLIADKSSSIAYMEVISLTSEDSAVYYCTRFRYSSFAMVYWGQGTSVTVSS
VL: DIVMSQSPSSLAVSAGEKVTMSCKSSQSLLNSRTRKNYLAWYQQKPGQSPKLLIYWASTRESGVPDRFTGSGSGTDFTLTINSVQAEDLAVYYCKQSYNLWTFGGGTKLEIK
With B2 the “HIV neutralizing activity” value [1] was “neutralizing activity”.

B3: 9F3-A7: murine IgG MAb from KLH-E-416-433 immunization (antibody, V domains shown)
VH: QVQLQQSGAELVRPGASVKLSCKALGYTFTDYEMHWVKQTPVHGLEWIGGIYPGSGGTAYNQKFKGKATLTADKSSSTAYMELSSLTSEDSAVYYCTKFRFSSFAMDYWGQGTSVTVSS
VL: B2 VL with S22R, N82S, S97F
In the case of B3, the “HIV neutralizing activity” value [1] is reported as “neutralizing activity”.
